Experimental findings from article PMC8629192 are described below.

A word on the Kd: it is the concentration at which binding is half-saturated.

This assay has as its target SARS-CoV-2 spike protein (Wuhan-Hu-1), recombinant full-length spike with C-terminal histidine (SARS-CoV-2) (UniProt P0DTC2). Put plainly: ELISA. In general terms: ELISA stands for enzyme-linked immunosorbent assay.

LRRC15-Fc, sequence (Q8TF66 22-538): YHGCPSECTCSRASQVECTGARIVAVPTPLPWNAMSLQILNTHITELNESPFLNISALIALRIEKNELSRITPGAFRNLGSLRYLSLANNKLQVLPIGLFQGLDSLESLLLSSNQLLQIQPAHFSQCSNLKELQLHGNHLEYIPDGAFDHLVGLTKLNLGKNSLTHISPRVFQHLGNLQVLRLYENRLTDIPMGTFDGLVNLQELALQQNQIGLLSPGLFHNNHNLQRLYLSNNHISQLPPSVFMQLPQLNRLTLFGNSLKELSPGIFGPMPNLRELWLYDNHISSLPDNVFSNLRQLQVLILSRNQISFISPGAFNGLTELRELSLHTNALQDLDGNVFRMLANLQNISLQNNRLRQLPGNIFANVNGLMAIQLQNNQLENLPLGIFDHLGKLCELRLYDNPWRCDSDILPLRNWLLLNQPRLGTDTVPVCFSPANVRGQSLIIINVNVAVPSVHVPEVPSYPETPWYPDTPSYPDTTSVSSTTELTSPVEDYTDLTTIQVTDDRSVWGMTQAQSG

Take “LRRC15-Fc (from UniProt Q8TF66) (Fc fusion)”: the equilibrium dissociation constant (Kd) was determined as 109 nM.
